Test results reported in patent US20200207868A1.

Target: full-length extracellular region of human FGFR1 (human) (UniProt P11362)
Assay: BLI, target binding to sensor-immobilized Fab

B1: Library-S Fab against FGFR1 (Fab, V domains shown)
VH: EVQLVESGGGLVQPGGSLRLSCAASGFTFSSYGMHWVRQAPGKGLEWVAVISYDGSNKYYADSVKGRFTISRDNSKNTLYLQMNSLRAEDTAVYYCARSGRYGTYKGDFDYWGQGTLVTVSS
VL: DIQMTQSPSSLSASVGDRVTITCRASQGISNYLAWYQQKPGKAPKLLIYAASSLQSGVPSRFSGSRSGTDFTLTISSLQPEDFATYYCQQSYRSPLTFGQGTKVEIK
Work on B1 yielded a Kd of 22.4 nM.
